Measurements as given in patent publication US20220306695A1, “COMPSTATIN ANALOGUES AND THEIR MEDICAL USES” (priority 2019, published 2022).
Positions of bridges follow the written chain, without caps; N, C: chain ends. Non-standard residues stand in square brackets, D forms with d. Trp(1-Me) = Cn1cc(C[C@H](N)C(=O)O)c2ccccc21; 1Nal = N[C@@H](Cc1cccc2ccccc12)C(=O)O; 2Nal = N[C@@H](Cc1ccc2ccccc2c1)C(=O)O; Sar = CNCC(=O)O

B1: Compound 44 (peptide)
peptide: Ac-EGSAICIWQDWGEHRC[Sar]EGE-NH2
modifications: disulfide 6-16
SMILES: CC[C@H](C)[C@H](NC(=O)[C@H](C)NC(=O)[C@H](CO)NC(=O)CNC(=O)[C@H](CCC(=O)O)NC(C)=O)C(=O)N[C@H]1CSSC[C@@H](C(=O)N(C)CC(=O)N[C@@H](CCC(=O)O)C(=O)NCC(=O)N[C@@H](CCC(=O)O)C(N)=O)NC(=O)[C@H](CCCNC(=N)N)NC(=O)[C@H](Cc2c[nH]cn2)NC(=O)[C@H](CCC(=O)O)NC(=O)CNC(=O)[C@H](Cc2c[nH]c3ccccc23)NC(=O)[C@H](CC(=O)O)NC(=O)[C@H](CCC(N)=O)NC(=O)[C@H](Cc2c[nH]c3ccccc23)NC(=O)[C@H]([C@@H](C)CC)NC1=O
B2: Compound 45 (peptide)
peptide: Ac-EGSAFCIWQDWGEHRC[Sar]E-NH2
modifications: disulfide 6-16
SMILES: CC[C@H](C)[C@@H]1NC(=O)[C@@H](NC(=O)[C@H](Cc2ccccc2)NC(=O)[C@H](C)NC(=O)[C@H](CO)NC(=O)CNC(=O)[C@H](CCC(=O)O)NC(C)=O)CSSC[C@@H](C(=O)N(C)CC(=O)N[C@@H](CCC(=O)O)C(N)=O)NC(=O)[C@H](CCCNC(=N)N)NC(=O)[C@H](Cc2c[nH]cn2)NC(=O)[C@H](CCC(=O)O)NC(=O)CNC(=O)[C@H](Cc2c[nH]c3ccccc23)NC(=O)[C@H](CC(=O)O)NC(=O)[C@H](CCC(N)=O)NC(=O)[C@H](Cc2c[nH]c3ccccc23)NC1=O
B3: Compound 52 (peptide)
peptide: Ac-ICI[2Nal]QDWGEHRCTGAES-NH2
modifications: disulfide 2-12
SMILES: CC[C@H](C)[C@H](NC(C)=O)C(=O)N[C@H]1CSSC[C@@H](C(=O)N[C@H](C(=O)NCC(=O)N[C@@H](C)C(=O)N[C@@H](CCC(=O)O)C(=O)N[C@@H](CO)C(N)=O)[C@@H](C)O)NC(=O)[C@H](CCCNC(=N)N)NC(=O)[C@H](Cc2c[nH]cn2)NC(=O)[C@H](CCC(=O)O)NC(=O)CNC(=O)[C@H](Cc2c[nH]c3ccccc23)NC(=O)[C@H](CC(=O)O)NC(=O)[C@H](CCC(N)=O)NC(=O)[C@H](Cc2ccc3ccccc3c2)NC(=O)[C@H]([C@@H](C)CC)NC1=O
B4: Compound 56 (peptide)
peptide: Ac-EGSAFCI[1Nal]QDWGEHRCTE-NH2
modifications: disulfide 6-16
SMILES: CC[C@H](C)[C@@H]1NC(=O)[C@@H](NC(=O)[C@H](Cc2ccccc2)NC(=O)[C@H](C)NC(=O)[C@H](CO)NC(=O)CNC(=O)[C@H](CCC(=O)O)NC(C)=O)CSSC[C@@H](C(=O)N[C@H](C(=O)N[C@@H](CCC(=O)O)C(N)=O)[C@@H](C)O)NC(=O)[C@H](CCCNC(=N)N)NC(=O)[C@H](Cc2c[nH]cn2)NC(=O)[C@H](CCC(=O)O)NC(=O)CNC(=O)[C@H](Cc2c[nH]c3ccccc23)NC(=O)[C@H](CC(=O)O)NC(=O)[C@H](CCC(N)=O)NC(=O)[C@H](Cc2cccc3ccccc23)NC1=O
B5: Compound 57 (peptide)
peptide: Ac-EGSAFCI[Trp(1-Me)]QDWGEHRCTE-NH2
modifications: disulfide 6-16
SMILES: CC[C@H](C)[C@@H]1NC(=O)[C@@H](NC(=O)[C@H](Cc2ccccc2)NC(=O)[C@H](C)NC(=O)[C@H](CO)NC(=O)CNC(=O)[C@H](CCC(=O)O)NC(C)=O)CSSC[C@@H](C(=O)N[C@H](C(=O)N[C@@H](CCC(=O)O)C(N)=O)[C@@H](C)O)NC(=O)[C@H](CCCNC(=N)N)NC(=O)[C@H](Cc2c[nH]cn2)NC(=O)[C@H](CCC(=O)O)NC(=O)CNC(=O)[C@H](Cc2c[nH]c3ccccc23)NC(=O)[C@H](CC(=O)O)NC(=O)[C@H](CCC(N)=O)NC(=O)[C@H](Cc2cn(C)c3ccccc23)NC1=O
B6: Compound 58 (peptide)
peptide: Ac-EGSAFCI[Trp(1-Me)]QDWGEHRCEGE-NH2
modifications: disulfide 6-16
SMILES: CC[C@H](C)[C@@H]1NC(=O)[C@@H](NC(=O)[C@H](Cc2ccccc2)NC(=O)[C@H](C)NC(=O)[C@H](CO)NC(=O)CNC(=O)[C@H](CCC(=O)O)NC(C)=O)CSSC[C@@H](C(=O)N[C@@H](CCC(=O)O)C(=O)NCC(=O)N[C@@H](CCC(=O)O)C(N)=O)NC(=O)[C@H](CCCNC(=N)N)NC(=O)[C@H](Cc2c[nH]cn2)NC(=O)[C@H](CCC(=O)O)NC(=O)CNC(=O)[C@H](Cc2c[nH]c3ccccc23)NC(=O)[C@H](CC(=O)O)NC(=O)[C@H](CCC(N)=O)NC(=O)[C@H](Cc2cn(C)c3ccccc23)NC1=O
B7: Compound 59 (peptide)
peptide: Ac-EGSAYCI[Trp(1-Me)]QDWGEHRCTE-NH2
modifications: disulfide 6-16
SMILES: CC[C@H](C)[C@@H]1NC(=O)[C@@H](NC(=O)[C@H](Cc2ccc(O)cc2)NC(=O)[C@H](C)NC(=O)[C@H](CO)NC(=O)CNC(=O)[C@H](CCC(=O)O)NC(C)=O)CSSC[C@@H](C(=O)N[C@H](C(=O)N[C@@H](CCC(=O)O)C(N)=O)[C@@H](C)O)NC(=O)[C@H](CCCNC(=N)N)NC(=O)[C@H](Cc2c[nH]cn2)NC(=O)[C@H](CCC(=O)O)NC(=O)CNC(=O)[C@H](Cc2c[nH]c3ccccc23)NC(=O)[C@H](CC(=O)O)NC(=O)[C@H](CCC(N)=O)NC(=O)[C@H](Cc2cn(C)c3ccccc23)NC1=O
B8: Compound 60 (peptide)
peptide: Ac-EGSAFCI[2Nal]QDWGEHRCTE-NH2
modifications: disulfide 6-16
SMILES: CC[C@H](C)[C@@H]1NC(=O)[C@@H](NC(=O)[C@H](Cc2ccccc2)NC(=O)[C@H](C)NC(=O)[C@H](CO)NC(=O)CNC(=O)[C@H](CCC(=O)O)NC(C)=O)CSSC[C@@H](C(=O)N[C@H](C(=O)N[C@@H](CCC(=O)O)C(N)=O)[C@@H](C)O)NC(=O)[C@H](CCCNC(=N)N)NC(=O)[C@H](Cc2c[nH]cn2)NC(=O)[C@H](CCC(=O)O)NC(=O)CNC(=O)[C@H](Cc2c[nH]c3ccccc23)NC(=O)[C@H](CC(=O)O)NC(=O)[C@H](CCC(N)=O)NC(=O)[C@H](Cc2ccc3ccccc3c2)NC1=O
B9: Compound 64 (peptide)
peptide: Ac-FCI[2Nal]QDWGEHRCTGAES-NH2
modifications: disulfide 2-12
SMILES: CC[C@H](C)[C@@H]1NC(=O)[C@@H](NC(=O)[C@H](Cc2ccccc2)NC(C)=O)CSSC[C@@H](C(=O)N[C@H](C(=O)NCC(=O)N[C@@H](C)C(=O)N[C@@H](CCC(=O)O)C(=O)N[C@@H](CO)C(N)=O)[C@@H](C)O)NC(=O)[C@H](CCCNC(=N)N)NC(=O)[C@H](Cc2c[nH]cn2)NC(=O)[C@H](CCC(=O)O)NC(=O)CNC(=O)[C@H](Cc2c[nH]c3ccccc23)NC(=O)[C@H](CC(=O)O)NC(=O)[C@H](CCC(N)=O)NC(=O)[C@H](Cc2ccc3ccccc3c2)NC1=O
B10: Compound 65 (peptide)
peptide: Ac-YCI[2Nal]QDWGEHRCTGAES-NH2
modifications: disulfide 2-12
SMILES: CC[C@H](C)[C@@H]1NC(=O)[C@@H](NC(=O)[C@H](Cc2ccc(O)cc2)NC(C)=O)CSSC[C@@H](C(=O)N[C@H](C(=O)NCC(=O)N[C@@H](C)C(=O)N[C@@H](CCC(=O)O)C(=O)N[C@@H](CO)C(N)=O)[C@@H](C)O)NC(=O)[C@H](CCCNC(=N)N)NC(=O)[C@H](Cc2c[nH]cn2)NC(=O)[C@H](CCC(=O)O)NC(=O)CNC(=O)[C@H](Cc2c[nH]c3ccccc23)NC(=O)[C@H](CC(=O)O)NC(=O)[C@H](CCC(N)=O)NC(=O)[C@H](Cc2ccc3ccccc3c2)NC1=O
B11: Compound 68 (peptide)
peptide: Ac-YCI[Trp(1-Me)]QDWGEHRCTEAGS-NH2
modifications: disulfide 2-12
SMILES: CC[C@H](C)[C@@H]1NC(=O)[C@@H](NC(=O)[C@H](Cc2ccc(O)cc2)NC(C)=O)CSSC[C@@H](C(=O)N[C@H](C(=O)N[C@@H](CCC(=O)O)C(=O)N[C@@H](C)C(=O)NCC(=O)N[C@@H](CO)C(N)=O)[C@@H](C)O)NC(=O)[C@H](CCCNC(=N)N)NC(=O)[C@H](Cc2c[nH]cn2)NC(=O)[C@H](CCC(=O)O)NC(=O)CNC(=O)[C@H](Cc2c[nH]c3ccccc23)NC(=O)[C@H](CC(=O)O)NC(=O)[C@H](CCC(N)=O)NC(=O)[C@H](Cc2cn(C)c3ccccc23)NC1=O
B12: Compound 69 (peptide)
peptide: Ac-YCI[Trp(1-Me)]QDWGEHRCTESGA-NH2
modifications: disulfide 2-12
SMILES: CC[C@H](C)[C@@H]1NC(=O)[C@@H](NC(=O)[C@H](Cc2ccc(O)cc2)NC(C)=O)CSSC[C@@H](C(=O)N[C@H](C(=O)N[C@@H](CCC(=O)O)C(=O)N[C@@H](CO)C(=O)NCC(=O)N[C@@H](C)C(N)=O)[C@@H](C)O)NC(=O)[C@H](CCCNC(=N)N)NC(=O)[C@H](Cc2c[nH]cn2)NC(=O)[C@H](CCC(=O)O)NC(=O)CNC(=O)[C@H](Cc2c[nH]c3ccccc23)NC(=O)[C@H](CC(=O)O)NC(=O)[C@H](CCC(N)=O)NC(=O)[C@H](Cc2cn(C)c3ccccc23)NC1=O
B13: Compound 70 (peptide)
peptide: Ac-EGSAYCI[Trp(1-Me)]QEWGEHRC[Sar]E-NH2
modifications: disulfide 6-16
SMILES: CC[C@H](C)[C@@H]1NC(=O)[C@@H](NC(=O)[C@H](Cc2ccc(O)cc2)NC(=O)[C@H](C)NC(=O)[C@H](CO)NC(=O)CNC(=O)[C@H](CCC(=O)O)NC(C)=O)CSSC[C@@H](C(=O)N(C)CC(=O)N[C@@H](CCC(=O)O)C(N)=O)NC(=O)[C@H](CCCNC(=N)N)NC(=O)[C@H](Cc2c[nH]cn2)NC(=O)[C@H](CCC(=O)O)NC(=O)CNC(=O)[C@H](Cc2c[nH]c3ccccc23)NC(=O)[C@H](CCC(=O)O)NC(=O)[C@H](CCC(N)=O)NC(=O)[C@H](Cc2cn(C)c3ccccc23)NC1=O

Molecular target: Human C3 (human, UniProt P01024 23-1663)
Sequence (P01024 23-1663 limits assumed): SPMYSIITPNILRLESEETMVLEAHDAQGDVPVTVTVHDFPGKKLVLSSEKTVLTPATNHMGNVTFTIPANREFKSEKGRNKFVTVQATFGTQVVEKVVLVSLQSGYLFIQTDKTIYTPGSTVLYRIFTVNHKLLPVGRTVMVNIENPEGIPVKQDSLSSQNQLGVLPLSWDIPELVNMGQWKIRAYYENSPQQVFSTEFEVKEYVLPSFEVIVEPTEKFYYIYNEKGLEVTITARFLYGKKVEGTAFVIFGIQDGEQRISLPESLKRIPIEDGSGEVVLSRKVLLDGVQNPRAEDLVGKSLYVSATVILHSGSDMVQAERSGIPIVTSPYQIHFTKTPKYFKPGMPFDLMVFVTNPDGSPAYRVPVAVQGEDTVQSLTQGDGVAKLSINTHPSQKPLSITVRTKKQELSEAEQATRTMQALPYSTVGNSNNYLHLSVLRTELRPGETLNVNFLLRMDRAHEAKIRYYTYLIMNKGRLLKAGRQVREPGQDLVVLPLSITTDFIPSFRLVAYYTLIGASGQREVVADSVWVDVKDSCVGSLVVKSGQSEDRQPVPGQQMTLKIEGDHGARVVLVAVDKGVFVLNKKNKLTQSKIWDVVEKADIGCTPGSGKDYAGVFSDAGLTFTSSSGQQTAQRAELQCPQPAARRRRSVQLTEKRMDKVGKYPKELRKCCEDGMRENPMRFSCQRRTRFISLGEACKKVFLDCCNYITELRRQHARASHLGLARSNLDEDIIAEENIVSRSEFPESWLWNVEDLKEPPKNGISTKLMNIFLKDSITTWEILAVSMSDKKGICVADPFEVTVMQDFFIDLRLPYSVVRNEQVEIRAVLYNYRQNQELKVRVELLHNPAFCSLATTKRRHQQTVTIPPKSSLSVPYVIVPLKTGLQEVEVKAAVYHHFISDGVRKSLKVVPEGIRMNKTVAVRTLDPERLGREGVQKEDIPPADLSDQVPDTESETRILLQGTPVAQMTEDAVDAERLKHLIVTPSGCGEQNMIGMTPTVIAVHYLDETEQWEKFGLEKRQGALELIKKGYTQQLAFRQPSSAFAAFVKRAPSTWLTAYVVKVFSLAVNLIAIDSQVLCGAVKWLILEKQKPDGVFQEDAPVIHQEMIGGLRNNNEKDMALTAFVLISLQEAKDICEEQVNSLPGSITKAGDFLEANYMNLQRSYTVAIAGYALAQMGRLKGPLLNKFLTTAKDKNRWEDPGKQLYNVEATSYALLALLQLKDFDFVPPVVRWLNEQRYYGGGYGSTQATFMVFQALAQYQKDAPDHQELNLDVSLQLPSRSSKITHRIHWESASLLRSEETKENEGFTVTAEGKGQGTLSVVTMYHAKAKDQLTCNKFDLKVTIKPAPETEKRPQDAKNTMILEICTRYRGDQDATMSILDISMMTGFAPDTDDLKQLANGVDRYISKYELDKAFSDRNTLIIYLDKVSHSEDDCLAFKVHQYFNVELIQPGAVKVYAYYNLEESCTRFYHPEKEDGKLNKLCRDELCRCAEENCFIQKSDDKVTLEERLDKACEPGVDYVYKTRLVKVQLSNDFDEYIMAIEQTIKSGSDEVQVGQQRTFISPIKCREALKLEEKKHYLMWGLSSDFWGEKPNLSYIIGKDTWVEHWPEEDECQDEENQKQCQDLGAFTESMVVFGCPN
Experiment: cell-based or functional assay

Binder | IC50[nM], inhibition of hemolysis [nM]
B1 | < 250
B2 | < 100
B3 | < 100
B4 | < 100
B5 | < 100
B6 | < 100
B7 | < 100
B8 | < 100
B9 | < 100
B10 | < 100
B11 | < 100
B12 | < 100
B13 | < 100
